What was measured:
RocC1-126 = RocC1-126 (Legionella pneumophila Paris, UniProt A0A3A6VMJ3 1-126); experiment: EMSA; […]; ITC: 25 mM HEPES pH 7.3, 150 mM NaCl, 10% glycerol, 1 mM TCEP, 25 C; conditions: protein: recombinant; tags: GST removed by 3C protease; label: 5' 32P; hairpin, 5-nt 3' tail
RocC14-126 [1] = target: T1, RocC14-126 (Legionella pneumophila Paris, UniProt A0A3A6VMJ3 14-126); experiment: EMSA; similar to 1-126; […]; ITC: 25 mM HEPES pH 7.3, 150 mM NaCl, 10% glycerol, 1 mM TCEP, 25 C; conditions: protein: recombinant; tags: GST removed by 3C protease; label: 5' 32P; hairpin, 5-nt 3' tail
RocC14-126 [2] = target: T1, RocC14-126; experiment: ITC; 1:1; […]; ITC: 25 mM HEPES pH 7.3, 150 mM NaCl, 10% glycerol, 1 mM TCEP, 25 C; conditions: protein: recombinant; tags: GST removed by 3C protease
FinO45-186 = target: T2, FinO45-186 (Escherichia coli (F plasmid)?, UniProt P29367 45-186); experiment: FP; […]; ITC: 25 mM HEPES pH 7.3, 150 mM NaCl, 10% glycerol, 1 mM TCEP, 25 C; conditions: protein: recombinant; tags: GST removed by 3C protease; label: 5' FAM; hairpin, 5-nt 3' tail
T2 sequence: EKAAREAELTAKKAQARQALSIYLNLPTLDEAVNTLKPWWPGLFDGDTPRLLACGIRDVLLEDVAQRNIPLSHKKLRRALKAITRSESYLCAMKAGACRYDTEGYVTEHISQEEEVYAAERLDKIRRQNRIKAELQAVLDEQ

RocC24-126 = RocC24-126 (Legionella pneumophila Paris, UniProt A0A3A6VMJ3 24-126); experiment: as above; conditions: protein: recombinant; tags: GST removed by 3C protease; label: 5' FAM; hairpin, 5-nt 3' tail
RocC14-126 [3] = target: T1, RocC14-126; experiment: ITC; little if any binding; […]; ITC: 25 mM HEPES pH 7.3, 150 mM NaCl, 10% glycerol, 1 mM TCEP, 25 C; conditions: protein: recombinant; tags: GST removed by 3C protease; hairpin, 5-nt 3' tail

Binder: GGGUGGGUCAAUUGGCGACACACUGAUUGGCCCUUUCU (structured_RNA) [RocRSL3 (IVT)]
- binding result (RocC1-126): binds
- binding result (RocC14-126 [1]): binds

Binder: GGCCCUUUCU (ssRNA) [10-nt single-stranded RNA]
- binding signal (RocC14-126 [2]): ~19 fold weaker than RocR9bp-tet

Binder: UGGGUCAAUUGGCGACACACUGAUUGGCCCUUUCU (structured_RNA) [FAM-RocRSL3 (5-nt tail)]
- binding result (FinO45-186): binds
- binding signal (RocC24-126): ~3 fold weaker than RocC1-126

Binder: UGGGUCAAUUGGCGACACACUGAUUGGCCCUUUCU (structured_RNA, 3'-phosphate) [RocRP (RocRSL3 3'-phosphate)]
- binding result (RocC14-126 [3]): no binding
